One data set has as its system haptoglobin. The experiment in a line: Haptoglobin protein expression after SQ injection of myoglobin with or without PEG. The class given is in vivo, mice. The following applies: 4 hour time point after SQ injection. As for the experimental part: Myoglobin+PEG: To a stock solution of 20 mg/ml Mgb in PBS was added 100 mg/ml of PEG-6000; […]. This was administered as a subcutaneous injection in the dorsal neck (250 ul total injection). For combined Mgb/PEG+SnPP, SnPP was added to the above in a concentration of 3 mg/ml.

Another data set concerns HK-2 cells. The experiment in a line: HK-2 cell injury by MTT assay. Format: cell-based. The following applies: 10 mg/mL, 18 hr incubation. As for the experimental part: HK-2 cells (a proximal tubule cell line derived from normal human kidney) were incubated in keratinocyte serum free medium either under normal (control) conditions or in the presence of 10 mg/mL horse skeletal muscle myoglobin or nitrited myoglobin (produced by equimolar Na nitrite addition to 10 mg/ml myoglobin). After 18 hr incubations, the severity of cell injury (% cell death) was assessed by MTT assay. Myoglobin induced 40% cell death (40% decrease in MTT cell uptake), compared to control incubated cells. Nitrite binding to myoglobin reduced cell death by 75%. Thus, nitrite binding is able to reduce myoglobin's cytotoxic effects.
In general terms: Tetrazolium dyes change colour on reduction, which living cells bring about.

Data set [1] has as its system HO-1 protein. The data set is described as follows: Renal cortex HO-1 protein (ELISA) after IV myoglobin, SnPP or both. Format: in vivo, CD-1 mice. The following applies: 4 hr IV; 1 mg myoglobin, 1 μmole SnPP. An excerpt: (§1) The Glycerol Model of AKI. This is a widely used model of rhabdomyolysis-induced AKI that has been employed worldwide for 50 years. The model was used to test whether prophylactic interventions confer protection against AKI. Basically, the protocol is as follows: Male CD-1 mice (35-45 grams), obtained from Charles River Laboratories, Wilmington, Mass. were studied. Mice were maintained under standard vivarium conditions and generally housed for 1-3 weeks prior to study. The mice were placed in a cylindrical restraining cage, and then were given a tail vein injection of the test substances (see below) or test substance vehicle. The mice were then returned to their cages. Eighteen hours (hrs) later, the mice were briefly anesthetized by isoflurane inhalation, and given an intramuscular injection of hypertonic (50%) glycerol in a dose of 9 ml/Kg body weight. The dose is divided in two, with half injected into the muscle of each of the hind limbs. The mice were then returned to their cages. Eighteen hrs later, the mice were deeply anesthetized with pentobarbital (50-100 mg/Kg), the abdominal cavity was opened through a midline abdominal incision, a blood sample was obtained from the abdominal vena cava and the kidneys were resected. A kidney cross section was obtained and fixed in formalin for subsequent histologic analysis. The terminal blood samples were analyzed for BUN and creatinine, using commercially available assay kits. The remaining kidney tissue was subjected to cortical dissection, and the cortical tissues were then extracted for protein and RNA. The protein samples were saved for analysis of HO-1 levels, and the RNA samples were subjected to RT-PCR to quantify HO-1 mRNA as well as levels of other stress gene mRNAs (e.g. NGAL, haptoglobin, hemopexin, hepicidin).
(§2) Myoglobin+SnPP: To 5 mg of dry myoglobin was added 0.9 ml of PBS+0.1 ml of a stock SnPP solution (50 umole/ml). The resulting final concentrations were 5 mg/ml myoglobin+5 umoles/ml of SnPP. The tail vein was injected with 200 ul of this solution, which equals 1 mg myoglobin+1 umole SnPP. […]
Four hr post myoglobin vs myoglobin+SnPP vs SnPP alone experiments. To confirm that the myoglobin+SnPP has a synergistic effect in inducing HO-1 mRNA and HO-1 protein levels, each of the above combinations have been administered alone via tail vein injection. Four hrs later, the mice were sacrificed as noted above and the kidneys were harvested for assessment of HO-1 mRNA and protein levels. For additional information regarding methods, see Zager et al., Am J Physiol Renal Physiol. 2014 Jul. 30. Pii.
Given that it is just 4 hrs post injection, the mRNA increases are greater than the protein increases as protein synthesis must follow the mRNA induction-requiring more time.
(ELISA stands for enzyme-linked immunosorbent assay.)

Details of data set [2]: species or system mice. The following applies: mouse, in vivo, iv.
The test system of data set [3] is HO-1 protein. The experiment in a line: Renal cortex HO-1 protein (ELISA) after IV myoglobin, SnPP or both. The class given is in vivo, CD-1 mice. The following applies: overnight (roughly 18 hrs) post IV; 1 mg myoglobin, 1 μmole SnPP.
Another data set concerns HO-1 mRNA. The experiment in a line: Renal HO-1 mRNA (RT-PCR, HO-1/GAPDH) after IV myoglobin, SnPP or both. The class given is in vivo, CD-1 mice.
Text: as §1, §2
[…] To confirm that the myoglobin+SnPP has a synergistic effect in inducing HO-1 mRNA and HO-1 protein levels, each of the above combinations have been administered alone via tail vein injection. […] For additional information regarding methods, see Zager et al., Am J Physiol Renal Physiol. 2014 Jul. 30. Pii.

[4] abbreviates: overnight (roughly 18 hrs) post IV, 1 mg myoglobin, 1 μmole SnPP.

Several values for one entry are separate records, joined by “and”; a condition that tells them apart may be missing. Identical values can stand only once.

B1: myoglobin (protein, UniProt P68082 2-154, looked up)
Myoglobin: GLSDGEWQQVLNVWGKVEADIAGHGQEVLIRLFTGHPETLEKFDKFKHLKTEAEMKASEDLKKHGTVVLTALGGILKKKGHHEAELKPLAQSHATKHKIPIKYLEFISDAIIHVLHSKHPGDFGADAQGAMTKALELFRNDIAAKYKELGFQG
notes: Lyophilized horse skeletal muscle (myoglobin) (Sigma Chemicals), a heme protein
B1 showed a Haptoglobin protein expression in the data set on haptoglobin of 32.7 ± 6.3 ng/mg ng/mg protein. Moreover, the “Cell death (decrease in MTT cell uptake) vs control incubated cells” value with HK-2 cells amounted to 40%. In the data set with HO-1 protein [1], the “Cortex HO-1 protein (ELISA), Average” value is on record as 45.4 ng HO-1/mg protein; the “Cortex HO-1 protein (ELISA), individual mice” value was 40.7 ng HO-1/mg protein and 40.2 ng HO-1/mg protein and 64.7 ng HO-1/mg protein and 36.0 ng HO-1/mg protein. For the same molecule, the “Plasma LDH, Average” value in data set [2] stood at 4.47 Absorbance U LDH/ml. Besides, in the data set with HO-1 protein [3], the “HO-1 protein induction, Average” value is 36.7; the “HO-1 protein induction, individual subjects” value was 50.6 and 34.9 and 24.6. Moreover, in the data set on HO-1 mRNA (kidney, 4 hr post IV injection), the “HO-1/GAPDH mRNA, Average” value is listed as 3.93; the “HO-1/GAPDH mRNA, individual mice” value is 7.78 and 2.93 and 2.58 and 2.41. Further, in the data set on HO-1 mRNA (setting [4]), the “HO-1/GAPDH mRNA, Average” value is listed as 0.58; the “HO-1/GAPDH mRNA, individual subjects” value is 0.71 and 0.53 and 0.51.

(Values after patent US20190358242A1, “COMPOSITIONS, KITS, AND METHODS TO INDUCE ACQUIRED CYTORESISTANCE USING STRESS PROTEIN INDUCERS” (FRED HUTCHINSON CANCER RESEARCH CENTER, priority 2017, published 2019).)
